These binders were tested against HLA-A*24 (human) (assay: UV peptide-exchange ELISA, yield grade).
KYMVYPQTF [… (SEQ ID NO: 267)] gave a peptide exchange yield of over 75%. Binder VYGFQWRHF [… (SEQ ID NO: 276)] has a peptide exchange yield of over 75%. TYIKPISKL [… (SEQ ID NO: 273)] showed a peptide exchange yield of 50 to 75%. TYIESASEL [… (SEQ ID NO: 279)] gave a peptide exchange yield of 50 to 75%. For TYTTVPRVAF [… (SEQ ID NO: 172)], the peptide exchange yield was over 75%. Work on KYPVEWAKF [… (SEQ ID NO: 289)] yielded a peptide exchange yield of over 75%. With RYISDQLFTNF [… (SEQ ID NO: 278)] the peptide exchange yield was over 75%. LYIDRPLPYL [… (SEQ ID NO: 196)] showed a peptide exchange yield of 50 to 75%. In the case of IYSWILDHF [… (SEQ ID NO: 173)], the peptide exchange yield is reported as over 75%. In the case of TYSVSFPMF [… (SEQ ID NO: 195)], the peptide exchange yield is reported as over 75%. FYSRLLQKF [… (SEQ ID NO: 203)] was tested, and the peptide exchange yield was 50 to 75%. In the case of VFTRVSSFL [… (SEQ ID NO: 162)], the peptide exchange yield is reported as 50 to 75%. Binder GFFIFNERF [… (SEQ ID NO: 190)] has a peptide exchange yield of 50 to 75%. Work on VFKASKITF [… (SEQ ID NO: 191)] yielded a peptide exchange yield of 50 to 75%. With YYVYIMNHL [… (SEQ ID NO: 225)] the peptide exchange yield was 50 to 75%. With RYLNKAFHI [… (SEQ ID NO: 284)] the peptide exchange yield was 50 to 75%. In the case of QYLENLEKL [… (SEQ ID NO: 224)], the peptide exchange yield is reported as 50 to 75%. TYLRDQHFL [… (SEQ ID NO: 187)] was tested, and the peptide exchange yield was over 75%. IYKVGAPTI [… (SEQ ID NO: 185)] was tested, and the peptide exchange yield was 50 to 75%. Work on IFPQFLYQF [… (SEQ ID NO: 186)] yielded a peptide exchange yield of over 75%. VFTSTARAF [… (SEQ ID NO: 183)] showed a peptide exchange yield of 50 to 75%. For AYTLIAPNI [… (SEQ ID NO: 169)], the peptide exchange yield was 50 to 75%. NYINRILKL [… (SEQ ID NO: 167)] showed a peptide exchange yield of over 75%. YFDKVVTL [YFDKVVTL (SEQ ID NO: 215)] was tested, and the peptide exchange yield was 20 to 49%. Binder YYVESGKLF [… (SEQ ID NO: 166)] has a peptide exchange yield of over 75%. With VYEDQVGKF [… (SEQ ID NO: 170)] the peptide exchange yield was 20 to 49%. Work on VYPWLGALL [… (SEQ ID NO: 177)] yielded a peptide exchange yield of over 75%. With VYRDETGELF [… (SEQ ID NO: 226)] the peptide exchange yield was 50 to 75%. With TYGDAGLTYTF [… (SEQ ID NO: 283)] the peptide exchange yield was 50 to 75%. With TYTQDFNKF [… (SEQ ID NO: 208)] the peptide exchange yield was 50 to 75%. For RYSTGLAGNLL [… (SEQ ID NO: 221)], the peptide exchange yield was 50 to 75%. LYLKLWNLI [… (SEQ ID NO: 214)] showed a peptide exchange yield of 50 to 75%. With VYVGGGQIIHL [… (SEQ ID NO: 174)] the peptide exchange yield was 50 to 75%. Binder EYQENFLSF [… (SEQ ID NO: 206)] has a peptide exchange yield of 50 to 75%. With FFPPTRQMGLLF [… (SEQ ID NO: 217)] the peptide exchange yield was over 75%. With RYFKGLVF [RYFKGLVF (SEQ ID NO: 188)] the peptide exchange yield was 50 to 75%. Work on VFQNFPLLF [… (SEQ ID NO: 184)] yielded a peptide exchange yield of over 75%. Binder KYTSWYVAL [… (SEQ ID NO: 228)] has a peptide exchange yield of over 75%. IYLVSIPEL [… (SEQ ID NO: 161)] showed a peptide exchange yield of over 75%. Work on LYLDKATLI [… (SEQ ID NO: 198)] yielded a peptide exchange yield of 50 to 75%. For DYTTWTALL [… (SEQ ID NO: 165)], the peptide exchange yield was over 75%. AYLHSHALI [… (SEQ ID NO: 274)] showed a peptide exchange yield of over 75%. With IFIEVFSHF [… (SEQ ID NO: 178)] the peptide exchange yield was 50 to 75%. Binder VHIPEVYLI [… (SEQ ID NO: 205)] has a peptide exchange yield of 50 to 75%. Work on KYQDILETI [… (SEQ ID NO: 168)] yielded a peptide exchange yield of over 75%. With KFSSFSLFF [… (SEQ ID NO: 164)] the peptide exchange yield was 50 to 75%. Work on YYLEVGKTLI [… (SEQ ID NO: 211)] yielded a peptide exchange yield of over 75%. With EYPLVINTL [… (SEQ ID NO: 219)] the peptide exchange yield was 50 to 75%. With EFGSLHLEFL [… (SEQ ID NO: 194)] the peptide exchange yield was under 20%. Binder RFHPTPLLL [… (SEQ ID NO: 193)] has a peptide exchange yield of over 75%. EYINQGDLHEF [… (SEQ ID NO: 275)] gave a peptide exchange yield of 50 to 75%. Work on LYLDIINLF [… (SEQ ID NO: 181)] yielded a peptide exchange yield of over 75%. With VYTLDIPVL [… (SEQ ID NO: 160)] the peptide exchange yield was over 75%. In the case of LFIPSSKLLFL [… (SEQ ID NO: 171)], the peptide exchange yield is reported as 50 to 75%. Binder QYLQDAYSF [… (SEQ ID NO: 272)] has a peptide exchange yield of over 75%. DYLKGLASF [… (SEQ ID NO: 163)] gave a peptide exchange yield of over 75%. Work on RYPDNLKHL [… (SEQ ID NO: 286)] yielded a peptide exchange yield of 20 to 49%. In the case of EYSLFPGQVVI [… (SEQ ID NO: 197)], the peptide exchange yield is reported as 50 to 75%. SYALLTYMI [… (SEQ ID NO: 192)] was tested, and the peptide exchange yield was over 75%. KYIPYKYVI [… (SEQ ID NO: 223)] showed a peptide exchange yield of 50 to 75%. With IYDDSFIRPVTF [… (SEQ ID NO: 180)] the peptide exchange yield was 50 to 75%. Binder IYTMIYRNL [… (SEQ ID NO: 210)] has a peptide exchange yield of over 75%. For KFVDSTFYL [… (SEQ ID NO: 282)], the peptide exchange yield was over 75%. Work on LYNKGFIYL [… (SEQ ID NO: 159)] yielded a peptide exchange yield of over 75%. Binder EYNQWFTKL [… (SEQ ID NO: 176)] has a peptide exchange yield of 50 to 75%. With RYPDNLKHLYL [… (SEQ ID NO: 280)] the peptide exchange yield was over 75%. With IFLDYEAGTLSF [… (SEQ ID NO: 227)] the peptide exchange yield was over 75%. HYSQELSLLYL [… (SEQ ID NO: 158)] was tested, and the peptide exchange yield was over 75%. VYVSDIQEL [… (SEQ ID NO: 288)] gave a peptide exchange yield of 50 to 75%. Binder LYHDIFSRL [… (SEQ ID NO: 271)] has a peptide exchange yield of over 75%. Binder YYEVHKELF [… (SEQ ID NO: 175)] has a peptide exchange yield of over 75%. Work on IYQLDTASI [… (SEQ ID NO: 182)] yielded a peptide exchange yield of 50 to 75%. In the case of MYDSYWRQF [… (SEQ ID NO: 179)], the peptide exchange yield is reported as over 75%. WYVNGVNYF [… (SEQ ID NO: 189)] was tested, and the peptide exchange yield was 20 to 49%. QYSSVFKSL [… (SEQ ID NO: 216)] was tested, and the peptide exchange yield was over 75%.

Reference: patent publication US20170165339A1
